Patent US6265551A, “Form of dipeptidylpeptidase IV (CD26) found in human serum, antibodies thereto, and uses thereof” (Dana-Farber Cancer Institute, Inc., priority 1996, dated 2001)

Substrate: NCC(=O)N1CCC[C@H]1C(=O)Nc1ccc([N+](=O)[O-])cc1
Assay: purified protein, by the assay type
Settings: other: rsCD26; Lineweaver-Burke transformation; substrate at different concentrations; 20.0 °C
Protocol: The DPPIV enzyme activities of the rsCD26 and serum DPPIV were analyzed by Michaelis-Menten kinetics by assessing kinetics of hydrolysis of substrate at different concentrations.
DPPIV activity: The primary substrate used for determining DPPIV activity in all assays was Gly-Pro-p-nitroanilide (Gly-Pro-pNA; Sigma), which is hydrolyzed by DPPIV to release pNA absorbing strongly at 405 nm. Kinetic assays were performed using varying amounts of substrate in order to obtain estimates of the Km and Vmax using standard Michaelis-Menten kinetics. For screening assays of DPPIV activity, 150 ml of substrate was used at 1 mg/ml (2 mM final concentration) in phosphate buffer (pH7.6, 100 mM) in 96 well flat-bottomed microtiter plates together with 10 ml of appropriately diluted sample. For samples obtained after elution from the s-Sepharose column, the pH was raised to pH7.6 by addition of 25 μl of 1M Tris-HCl, pH7.6 to the reaction mixture. One unit (U) of enzyme activity was defined as the amount of enzyme that cleaved 1 mmol of Gly-Pro-pNA/min at pH7.6 and 20° C. […] The pH optimum was determined substituting phosphate buffer (100 mM, pH4.5-pH9) in place of standard incubation buffer.

B1: recombinant soluble CD26 (rsCD26), full extracellular domain of human T cell membrane CD26/DPPIV, 105 kDa form, from transfected CHO cells (Homo sapiens) (protein)
chain: NKGTDDATADSRKTYTLTDYLKNTYRLKLYSLRWISDHEYLYKQENNILVFNAEYGNSSVFLENSTFDEFGHSINDYSISPDGQFILLEYNYVKQWRHSYTASYDIYDLNKRQLITEERIPNNTQWVTWSPVGHKLAYVWNNDIYVKIEPNLPSYRITWTGKEDIIYNGITDWVYEEEVFSAYSALWWSPNGTFLAYAQFNDTEVPLIEYSFYSDESLQYPKTVRVPYPKAGAVNPTVKFFVVNTDSLSSVTNATSIQITAPASMLIGDHYLCDVTWATQERISLQWLRRIQNYSVMDICDYDESSGRWNCLVARQHIEMSTTGWVGRFRPSEPHFTLDGNSFYKIISNEEGYRHICYFQIDKKDCTFITKGTWEVIGIEALTSDYLYYISNEYKGMPGGRNLYKIQLSDYTKVTCLSCELNPERCQYYSVSFSKEAKYYQLRCSGPGLPLYTLHSSVNDKGLRVLEDNSALDKMLQNVQMPSKKLDFIILNETKFWYQMILPPHFDKSKKYPLLLDVYAGPCSQKADTVFRLNWATYLASTENIIVASFDGRGSGYQGDKIMHAINRRLGTFEVEDQIEAARQFSKMGFVDNKRIAIWGWSYGGYVTSMVLGSGSGVFKCGIAVAPVSRWEYYDSVYTERYMGLPTPEDNLDHYRNSTVMSRAENFKQVEYLLIHGTADDNVHFQQSAQISKALVDVGVDFQAMWYTDEDHGIASSTAHQHIYTHMSHFIKQCFSLP
Km: 280 µM
